Laboratory results from article PMC11506342, “Ratiometric Electrochemical Detection of Interleukin-6 Using Electropolymerized Methylene Blue and a Multi-Walled Carbon-Nanotube-Modified Screen-Printed Carbon Electrode”.

Molecular target: interleukin-6 (IL-6) (UniProt P05231 30-212)
Assay: electrochemical aptasensor (DPV, [Fe(CN)6]3-/4- vs poly-methylene blue); aptamer immobilised on CS/MWCNT/pMB electrode, BSA blocked; 30 min incubation; linear 0.001-1000 ng/mL, LOD 0.54 pg/mL (not a Kd); 1 uM aptamer for immobilisation, IL-6 incubated 30 min with stirring; binding buffer, salt, pH and temperature not given in the material
Conditions: protein: commercial; hairpin (stated)

interleukin-6 (IL-6), sequence (P05231 30-212): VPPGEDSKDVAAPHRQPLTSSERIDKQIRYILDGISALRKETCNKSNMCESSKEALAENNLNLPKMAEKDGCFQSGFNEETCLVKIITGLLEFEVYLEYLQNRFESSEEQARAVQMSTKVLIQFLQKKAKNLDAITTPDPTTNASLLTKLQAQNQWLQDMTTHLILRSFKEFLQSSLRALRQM

GGTGGCAGGAGGACTATTTATTTGCTTTTCT (ssDNA, 3'-NH2) [IL-6 aptamer (NH2-Apt)]: binds.
